Data reported in patent US20080300188A1 (GENEXINE, published 2008).

How the values were obtained:
[1] = biological target: T1, C1q (AbD serotech, Cat#. 2221-5504) (UniProt P02745 23-245; P02746 28-253; P02747 29-245); assay: ELISA, sample coated on strip, C1q added, detected with HRP conjugated anti-C1q
T1 construct: Bought C1q, added at 2 ug/ml
Experimental: (§1) To investigate whether hFc-5-fused proteins bind to FcγRI and C1q, MabThera® (Rituximab, Roche), hIgG1 (Calbiochem, Cat#, 400120), Enbrel® (etanercept, Amgen), EPO-hFc-5, G-CSF-hFc-5 and p40N303Q-hFc-5 were serially diluted (from 2 ug/ml to 16 ng/ml with 2-fold) and coated on the 8 well strip (COSTAR, New York) overnight at 4° C. To make a standard curve, FcγRI (R&D, cat# BAF1257) or C1q (AbD serotech, Cat#. 2221-5504) were also serially diluted (from 2 ug/ml to 32 ng/ml with 2-fold) and coated on the 8 well strip (COSTAR, New York) overnight at 4° C. After washing each strip of samples with washing buffer (PBS containing 0.05% tween) and blocking with 10% FBS in PBS for 1 hour at RT, FcγRI or C1q were added into each well at 2 ug/ml following incubation for 2 hours at room temperature (RT). All strips were washed with washing buffer. For C1q binding test, HRP conjugated anti-C1q (AbD serotech, cat#. 2221-5004P) was added into each well at 2.5 ug/ml following 30 min incubation at RT under dark condition. For FcγRI binding test, biotinylated anti-FcγRI (R&D, cat#. 1257-FC) was added into each well at 2 ug/ml following 1 hour incubation at RT. After washing them with washing buffer, Streptavidine-HRP (BD, cat#. 554066) diluted with 3,000 fold was added into each strip following 30 minute incubation at RT under dark condition. […]

[2] = biological target: T2, FcγRI (R&D, cat# BAF1257) (UniProt P12314 16-288, limits assumed); assay: ELISA, sample coated on strip, FcγRI added, detected with biotinylated anti-FcγRI and streptavidin-HRP
T2 construct: Bought soluble reagent, added at 2 ug/ml; also called FcγR1
Experimental: as §1

T1 sequence (P02745 23-245 limits assumed, chain 1 of 3): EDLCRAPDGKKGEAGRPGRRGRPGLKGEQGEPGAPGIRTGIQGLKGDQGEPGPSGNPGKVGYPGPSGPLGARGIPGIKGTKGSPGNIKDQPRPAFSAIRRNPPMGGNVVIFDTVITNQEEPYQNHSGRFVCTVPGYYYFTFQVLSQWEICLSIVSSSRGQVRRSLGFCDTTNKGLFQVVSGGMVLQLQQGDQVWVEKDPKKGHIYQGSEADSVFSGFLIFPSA
T1 sequence (P02746 28-253 limits assumed, chain 2 of 3): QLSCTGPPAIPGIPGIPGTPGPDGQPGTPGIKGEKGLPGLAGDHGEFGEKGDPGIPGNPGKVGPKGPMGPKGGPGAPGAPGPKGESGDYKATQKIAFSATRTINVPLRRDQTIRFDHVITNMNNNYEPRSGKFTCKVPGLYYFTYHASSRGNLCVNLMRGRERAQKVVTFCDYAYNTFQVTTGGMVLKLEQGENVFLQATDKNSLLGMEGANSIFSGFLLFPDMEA
T1 sequence (P02747 29-245 limits assumed, chain 3 of 3): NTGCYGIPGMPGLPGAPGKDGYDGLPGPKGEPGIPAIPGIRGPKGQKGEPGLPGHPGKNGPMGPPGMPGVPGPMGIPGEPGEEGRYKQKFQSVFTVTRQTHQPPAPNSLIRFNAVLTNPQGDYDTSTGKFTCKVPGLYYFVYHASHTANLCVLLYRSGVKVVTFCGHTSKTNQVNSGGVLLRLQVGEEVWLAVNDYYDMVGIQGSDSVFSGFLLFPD
T2 sequence (P12314 16-288 limits assumed): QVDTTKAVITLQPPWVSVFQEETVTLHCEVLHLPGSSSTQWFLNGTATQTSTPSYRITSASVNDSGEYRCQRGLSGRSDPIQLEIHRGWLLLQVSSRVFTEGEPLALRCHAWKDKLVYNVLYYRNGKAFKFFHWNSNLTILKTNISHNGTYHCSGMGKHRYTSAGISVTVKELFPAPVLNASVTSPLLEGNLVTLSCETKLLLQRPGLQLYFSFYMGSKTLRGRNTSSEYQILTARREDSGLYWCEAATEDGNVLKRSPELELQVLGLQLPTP

binding result [1]: no binding | binding result [2]: no binding
B1: p40N303Q-hFc-5 (Fc fusion)
chain: IWELKKDVYVVELDWYPDAPGEMVVLTCDTPEEDGITWTLDQSSEVLGSGKTLTIQVKEFGDAGQYTCHKGGEVLSHSLLLLHKKEDGIWSTDILKDQKEPKNKTFLRCEAKNYSGRFTCWWLTTISTDLTFSVKSSRGSSDPQGVTCGAATLSAERVRGDNKEYEYSVECQEDSACPAAEESLPIEVMVDAVHKLKYENYTSSFFIRDIIKPDPPKNLQLKPLKNSRQVEVSWEYPDTWSTPHSYFSLTFCVQVQGKSKREKKDRVFTDKTSATVICRKQASISVRAQDRYYSSSWSEWASVPCSRNTGRGGEEKKKEKEKEEQEERETKTPECPSHTQPLGVFLFPPKPKDTLMISRTPEVTCVVVDVSQEDPEVQFNWYVDGVEVHNAKTKPREEQFNSTYRVVSVLTVLHQDWLNGKEYKCKVSNKGLPSSIEKTISKAKGQPREPQVYTLPPSQEEMTKNQVSLTCLVKGFYPSDIAVEWESNGQPENNYKTTPPVLDSDGSFFLYSRLTVDKSRWQEGNVFSCSVMHEALHNHYTQKSLSLSLGK
notes: also called human p40N303Q-hFc-5
